Results from article PMC7971519.

Molecular target: PRRSV nonstructural protein 2 transframe product (nsp2TF) (porcine reproductive and respiratory syndrome virus 2 (PRRSV-2), isolate SD95-21)
Assay: co-IP; lysates of PRRSV-infected MARC-145 cells collected at 8, 10 and 12 hpi; IP with rabbit anti-nsp2TF pAb or anti-nsp2 pAb (C-terminal peptides); blots probed with anti-GP5 and anti-M mAbs; densitometry; mock-infected lysate as control

Substance	fold more M protein co-precipitated than in the nsp2 IP, 8 hpi	fold more M protein co-precipitated than in the nsp2 IP, 10 hpi	fold more M protein co-precipitated than in the nsp2 IP, 12 hpi	fold more GP5 co-precipitated than in the nsp2 IP, 8 hpi	fold more GP5 co-precipitated than in the nsp2 IP, 10 hpi	fold more GP5 co-precipitated than in the nsp2 IP, 12 hpi
PRRSV membrane (M) protein (natural protein)	3.38 fold	3.44 fold	2.77 fold	–	–	–
PRRSV GP5 glycoprotein (natural protein)	–	–	–	3.39 fold	3.26 fold	3.36 fold
